Source: the Human Domainome abundance scans (Beltran et al. 2025)

B1: Mineralocorticoid receptor, residues 600 to 675; numbered along this chain, P08235 (parent)
chain: SKICLVCGDEASGCHYGVVTCGSCKVFFKRAVEGQHNYLCAGRNDCIIDKIRRKNCPACRLQKCLQAGMNLGARKS

Variants of: B1
Test: abundance fitness (aPCA) (normalised: wild type 0, dead -1); higher = more abundant; growth selection in yeast, the domain comes from the species named
Settings: Homo sapiens

Abundance fitness, by site and new letter:
D45: K -0.072
L39: T -0.077; P -0.07; S -0.05; G -0.045; V -0.007; K -0.009; C 0.027; F -0.027; R -0.019; Q -0.001; E -0.047; I -0.043; A -0.093; Y -0.054; D 0.048; M 0.016
D49: E -0.04; A -0.141
F28: Q -0.582; V -0.322; P -1.21; Y -0.095; W 0.037; M -0.101; H -0.445; K -0.856; R -0.898; S -0.361; N -0.647; G -0.647
K29: E -0.105; M -0.04; D 0.007; W -0.085; L -0.072; A 0.016; T -0.012; H -0.002; S -0.04; F -0.167; P -0.076; N -0.109; G -0.048; R -0.021; Q -0.003; C -0.142; V -0.095
G34: A -0.099; M -0.098; L -0.131; E -0.013; R 0.032; V -0.102; H -0.078; S -0.074; T -0.064; Q -0.043; W -0.165; F 0.071; K -0.104; C -0.151; N 0.042; I -0.103
C40: V -1.23; H -0.341; W -0.697; R -1; T -0.68; N -0.477; D -0.819; E -0.646; K -0.73; G -0.986; A -0.816; S -1.05; F -1.13; Y -0.737; I -0.759; L -0.847
N44: Y -0.049; D 0.071; E -0.042; P -0.391; G -0.004; A -0.016; F -0.075; I -0.342; T -0.054; M -0.081; K 0.016; S -0.02; L -0.16; H -0.045; Q -0.038; V -0.246; W -0.089
G42: C -0.088; S 0.023; P -0.621; W -0.126; A 0.005; F -0.044; D 0.051; M 0.045; R -0.062; V 0.005; T -0.099; L -0.009; Q 0.032; Y -0.051; I -0.033; N -0.025
E33: M -0.049; C -0.107; D -0.043; W -0.099; P -0.128; T -0.051; H -0.077; K 0.044; S 0.008; N -0.089; I -0.124; F -0.137; A -0.28; Q -0.039; V -0.01; G 0.062; L -0.109; Y -0.088
I48: G -0.033; R -0.147; F -0.104; W -0.072; Q -0.013; M 0.021; S -0.122; E -0.002; K -0.082; C -0.226; A -0.074; H -0.2; T -0.026; V -0.035; D -0.107; L -0.077; N -0.015; P -0.131; Y -0.176
C46: K -0.839; P -0.856; D -0.785; F -0.653; S -0.946; L -0.819; G -0.636; H -0.011; Q -0.966; R -0.821; N -0.921; E -0.852; M -0.81; W -0.856; I -0.827; A -0.744; V -0.813
